The source of these data is US20250206813A1 (NVH MEDICINAL, published 2025).

The target in experiment [1] is T1, PCPE-1 (Procollagen C-proteinase enhancer-1) glycoprotein, human (human, UniProt Q15113 26-449).
T1 construct: mature; Secreted recombinant protein; also called purified human PCPE-1
T1 sequence (looked up): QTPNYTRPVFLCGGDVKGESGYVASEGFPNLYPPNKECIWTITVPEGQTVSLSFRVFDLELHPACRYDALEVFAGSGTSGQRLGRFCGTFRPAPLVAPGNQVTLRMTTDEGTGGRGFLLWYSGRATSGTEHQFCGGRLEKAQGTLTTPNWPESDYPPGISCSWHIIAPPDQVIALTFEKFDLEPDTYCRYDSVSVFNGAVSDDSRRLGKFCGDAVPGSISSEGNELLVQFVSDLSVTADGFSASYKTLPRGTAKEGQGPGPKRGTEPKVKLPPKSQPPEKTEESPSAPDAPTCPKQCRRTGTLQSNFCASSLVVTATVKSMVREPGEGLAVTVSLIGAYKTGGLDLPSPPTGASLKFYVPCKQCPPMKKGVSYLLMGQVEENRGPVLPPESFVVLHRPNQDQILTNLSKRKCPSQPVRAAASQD
The experiment can be described thus: SPR competition: PCPE-1 (5 nM) co-injected with D1 (0-200 nM) over immobilized mini-procollagen III; blocked ligand: Mini III. How it is done:
FIG. 4B: Inhibition of PCPE-1/mini-procollagen III interaction in the presence of D1: the interaction of PCPE-1 (5 nM) with immobilized mini-procollagen III is measured and compared with the interaction obtained when PCPE-1 (5 nM) is co-injected with increasing amounts (0-200 nM) of D1. The % residual PCPE-1 uptake is plotted as a function of D1 concentration.
(§1) Surface plasmon resonance (SPR) experiments were carried out on a Biacore T200 (Cytiva). The ligand proteins, in solution in 10 mM HEPES pH 7.4 buffer for PCPE-1 or 10 mM sodium acetate pH 4.5 buffer for mini-procollagen III and streptavidin, are immobilized on CM5 chips by amine coupling. Analytes are diluted in running buffer (10 mM HEPES pH 7.4, 0.15 M NaCl, 5 mM CaCl₂), 0.05% P20) and injected at a flow rate of 30 or 50 μL/min. Competition, epitope binning and kinetics experiments were all carried out at 25° C. Regeneration was achieved by successive injection of 2 M guanidine chloride and 0.5 M EDTA for 30 sec. Sensorgrams were analyzed with Biacore T200 Evaluation v3.2.1 (Cytiva), using the most suitable models. IC50 was determined by non-linear regression using GraphPad Prism (v8.2.1).

The target in experiment [2] is T1, PCPE-1 (Procollagen C-proteinase …). Briefly: SPR competition: PCPE-1 (5 nM) co-injected with D1 (0-200 nM) on immobilized Mini III. How it is done: as §1
Similarly, the addition of diab-D1 completely blocks the stimulation of CPIII-Long cleavage by PCPE-1 (FIG. 4C).

The target is the same in experiment [3]. The experiment can be described thus: SPR, D1 (0-250 nM) injected over immobilized PCPE-1, 1:1 binding model (Langmuir). The protocol: as §1
(§2) 21, produced in bacteria. The interaction of diab-D1 with PCPE-1 was assessed by SPR, by injecting increasing concentrations of diab-D1 onto immobilized PCPE-1.

For experiment [4] the target is unchanged. The experiment can be described thus: SPR, increasing concentrations of D1 (0-250 nM) on immobilized PCPE-1, Langmuir model. The protocol: as §1, §2
For experiment [5] the target is unchanged. The experiment can be described thus: SPR competition: PCPE-1 (5 nM) co-injected with the mix on immobilized Mini III; mix of VHH-I5 and VHH-H4, 5 nM PCPE-1. The protocol: as §1
What is more, their antagonistic effects are additive, and co-injection of a mixture of VHH-I5 and VHH-H4 with PCPE-1 virtually eliminates its interaction with Mini III.

B1: bivalent nanobody VHH-H4-GS8-VHH-I5 (D1) (other)
chain: MAEVQLQASGGGFVQPGGSLRLSCAASGFTSEISNMGWFRQAPGKEREFVSAISGTHTTQTYYADSVKGRFTISRDNSKNTVYLQMNSLRAEDTATYYCAAEQDMSDLWLGSYWGQGTQVTVSSAAAGSGSGSGSGSGSGGSQVQLVESGGGLVQPGGFLRLLCTASGNIFSSNTMGWYRRAPGKQREWVASISKGGSTNYADSVKDRFTISRSITKNTVYLQMVNLKPEDTAVYYCNPVPDSDNYASGQGTQVTVSS
notes: Single polypeptide of two VHHs (H4, linker, I5), biparatopic for PCPE-1 (CUB1 and CUB2); produced in bacteria; also called diab-D1; diabody D1; not shown: C-terminal tag of the pET29b(+) construct (6-His for the synthetic nanobodies)
In general, IC50 refers to the point on the concentration scale where inhibition reaches its midpoint. A word on the koff: it is the first-order rate constant of dissociation. One may read the kon as a measure of how fast the partners come together. For orientation: Kd means a measure of binding affinity in units of concentration. For the molecule B1, the “IC50 (read off the curve)” value in experiment [1] was about 3 nM. Besides, the concentration for half-maximal inhibition (IC50) in experiment [2] is about 3.5 nM. Moreover, in experiment [3], the off-rate (koff) came to 0.000515 s⁻¹ and the kon was 1.6e+06 M⁻¹ s⁻¹. The Kd in experiment [4] stood at 0.32 nM.

B2: mix of VHH-I5 and VHH-H4 (other)
VHH 1: MAQVQLVESGGGLVQPGGFLRLLCTASGNIFSSNTMGWYRRAPGKQREWVASISKGGSTNYADSVKDRFTISRSITKNTVYLQMVNLKPEDTAVYYCNPVPDSDNYASGQGTQVTVSS
VHH 2: MAEVQLQASGGGFVQPGGSLRLSCAASGFTSEISNMGWFRQAPGKEREFVSAISGTHTTQTYYADSVKGRFTISRDNSKNTVYLQMNSLRAEDTATYYCAAEQDMSDLWLGSYWGQGTQVTVSS
notes: Not one molecule: two separate nanobodies added together; the two chains are not linked; also called mixture of VHH-I5 and VHH-H4; VHH-I5 and VHH-H4 co-injected; not shown: C-terminal 6-His tag
Turning to B2, in experiment [5], the half-inhibitory concentration (IC50) was about 20 nM.
